Each block holds one substance with its values, some of them ahead of it.
Experiments:
Hsp70 [1] = target: Hsp70 (UniProt P11142)
Hsp70 [2] = target: Hsp70 (UniProt P11142); remark: listed apart in the source
Hsp70 [3] = target: Hsp70 (UniProt P11142); remark: listed apart in the source
[4] = target: Hsp70 T204A,S494C-AF488 (C267A, C574A, C603A); assay: fluorescence polarisation; steady-state fluorescence anisotropy; 100 nM Hsp70 T204A,S494C-AF488 titrated with 0-1.0 mM full-length DNAJB6 WT or mutants; 20 min at 37 °C; 50 mM HEPES pH 8.0, 200 mM KCl, 10 mM MgCl, 2 mM ATP; one-site binding model
Hsp70 [5] = target: Hsp70 (UniProt P11142); remark: listed apart in the source

Chain of DNAJB6^JD (res. 1-72) (O75190 1-72): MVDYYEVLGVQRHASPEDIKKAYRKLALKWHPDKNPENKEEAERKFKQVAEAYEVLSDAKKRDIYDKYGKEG
Chain of DNAJB6^JD-GF WT (res. 1-109) (O75190 1-109): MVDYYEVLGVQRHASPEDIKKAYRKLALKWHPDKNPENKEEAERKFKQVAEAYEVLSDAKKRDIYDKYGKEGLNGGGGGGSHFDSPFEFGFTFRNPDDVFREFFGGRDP
Chain of DNAJB6^WT (isoform b), full-length oligomeric, O75190-2 1-241 (natural protein) (O75190 other isoform, or with tags, fused parts or gaps): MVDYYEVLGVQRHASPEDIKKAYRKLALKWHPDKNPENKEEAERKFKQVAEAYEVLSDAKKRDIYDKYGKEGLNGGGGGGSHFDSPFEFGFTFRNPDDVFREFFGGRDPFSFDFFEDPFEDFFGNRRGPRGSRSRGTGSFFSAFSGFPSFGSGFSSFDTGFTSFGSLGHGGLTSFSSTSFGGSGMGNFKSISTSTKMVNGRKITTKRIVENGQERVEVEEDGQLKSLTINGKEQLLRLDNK

Substance: DNAJB6^JD-GF E54A (from UniProt O75190 1-109) (domain or fragment)
steady-state ATPase activity of Hsp70, fold enhancement of ATP hydrolysis rate (Hsp70 [2]): 4 fold

Substance: DNAJB6^JD-GF F100V (from UniProt O75190 1-109) (domain or fragment)
steady-state ATPase activity of Hsp70 (initial rate of phosphate release); roughly 6-8-fold increase (Hsp70 [2]): 1.64 nM Pi min^−1

Substance: DNAJB6^JD-GF WT (res. 1-109) (from UniProt O75190 1-109) (domain or fragment)
steady-state ATPase activity of Hsp70, fold activation over Hsp70 alone (Hsp70 [3]): 1.6 fold

Substance: full-length DNAJB6 A50V (from UniProt O75190-2 1-241) (natural protein)
Kd [4]: 9 µM

Substance: full-length DNAJB6 F93L (from UniProt O75190-2 1-241) (natural protein)
Kd [4]: 290 µM

Substance: full-length DNAJB6 F100V (from UniProt O75190-2 1-241) (natural protein)
Kd [4]: 1.5 µM

The next lines start with the values.

steady-state ATPase activity of Hsp70 (initial rate of phosphate release, PBP fluorescence); 0.25 μM Hsp70, 0.25 μM DNAJB6 variant (Hsp70 [1]): 1.74 nM Pi min^−1
Substance: DNAJB6^JD (res. 1-72) (from UniProt O75190 1-72) (domain or fragment)

steady-state ATPase activity of Hsp70 (initial rate of phosphate release); roughly 6-8-fold increase (Hsp70 [2]): 1.24 nM Pi min^−1
Substance: DNAJB6^JD-GF A50V (from UniProt O75190 1-109) (domain or fragment)

steady-state ATPase activity of Hsp70, fold enhancement of ATP hydrolysis rate (Hsp70 [2]): 4 fold
Substance: DNAJB6^JD-GF P96R (from UniProt O75190 1-109) (domain or fragment)

Kd [4]: > 10000 µM
Substance: DNAJB6^WT (isoform b), full-length oligomeric (from UniProt O75190-2 1-241) (natural protein)

steady-state ATPase activity of Hsp70 with full-length oligomeric DNAJB6, fold activation (Hsp70 [5]): 1.4 fold
Substance: DNAJB6^WT (isoform b), full-length oligomeric, O75190-2 1-241 (natural protein)

Kd [4]: 600 µM
Substance: full-length DNAJB6 F91I (from UniProt O75190-2 1-241) (natural protein)

Kd [4]: 47 µM
Substance: full-length DNAJB6 P96R (from UniProt O75190-2 1-241) (natural protein)
